Test results published in article PMC12369401, “A β‐1,2‐glucan‐associated glycoside hydrolase family 1 β‐glucosidase from Streptomyces griseus” (Protein Science : A Publication of the Protein Society, 2025).

Assays:
[1] = target: T1, SGR_2426r (SGR_2426 protein) (Streptomyces griseus, UniProt B1W1N0, E318G); test: X-ray crystal structure, soaked crystal; format: binding; details: 500 mM Sop2 soak, about 2 h; subsites -1 and +1; mutant printed E316G once
T1 construct: full length (no signal peptide), C-terminal His6 tag kept, pET30a, E. coli BL21(DE3); monomer by PISA

[2] = substrate: C[C@H]1O[C@@H](Oc2ccc([N+](=O)[O-])cc2)[C@H](O)[C@@H](O)[C@H]1O; test: p-nitrophenol release, biphasic fit; format: biochemical, Streptomyces griseus; details: pH 6.5, first (stronger) site of biphasic equation
From the text: p-nitrophenol release, biphasic fit on SGR_2426r (SGR_2426 protein)

purified protein [3] = substrate: O=[N+]([O-])c1ccc(O[C@@H]2O[C@H](CO)[C@@H](O)[C@H](O)[C@H]2O)cc1; test: purified protein; details: pH 6.5
purified protein [4] = substrate: O=[N+]([O-])c1ccc(O[C@@H]2O[C@H](CO)[C@H](O)[C@H](O)[C@H]2O)cc1; test: purified protein; details: pH 6.5

T1 sequence (B1W1N0 entry or part of it E318G): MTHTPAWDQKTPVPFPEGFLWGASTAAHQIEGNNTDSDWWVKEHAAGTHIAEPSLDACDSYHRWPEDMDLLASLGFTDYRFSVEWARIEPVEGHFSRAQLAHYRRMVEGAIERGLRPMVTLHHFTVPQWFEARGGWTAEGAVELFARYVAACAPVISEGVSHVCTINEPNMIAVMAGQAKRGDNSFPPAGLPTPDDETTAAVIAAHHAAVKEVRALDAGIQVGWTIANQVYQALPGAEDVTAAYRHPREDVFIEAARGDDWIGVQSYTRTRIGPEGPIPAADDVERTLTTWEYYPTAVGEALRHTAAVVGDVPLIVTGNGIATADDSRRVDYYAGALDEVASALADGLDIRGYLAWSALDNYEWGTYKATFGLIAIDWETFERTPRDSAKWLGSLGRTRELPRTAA

| Molecule | X-ray crystal structure, soaked crystal [1] | Km [2] [µM] | Vmax [2] [µmol/min/mg] | Vmax/Km [2] [µL/min/mg] | Km (purified protein [3]) [µM] | Vmax (purified protein [3]) [µmol/min/mg] | Vmax/Km (purified protein [3]) [µL/min/mg] | Km (purified protein [4]) [µM] | Vmax (purified protein [4]) [µmol/min/mg] | Vmax/Km (purified protein [4]) [µL/min/mg] |
| --- | --- | --- | --- | --- | --- | --- | --- | --- | --- | --- |
| OC[C@H]1O[C@@H](O[C@H]2C(O)O[C@H](CO)[C@@H](O)[C@@H]2O)[C@H](O)[C@@H](O)[C@@H]1O (stereo partly shown) [Sop2, sophorose] | crystals of the E318G mutant prepared without Sop2 were soaked |  |  |  |  |  |  |  |  |  |
| SGR_2426r (SGR_2426 protein) (Streptomyces griseus subsp. griseus NBRC 13350) (protein, full length (no signal peptide), C-terminal His6 tag kept, pET30a, E. coli BL21(DE3); monomer by PISA) MTHTPAWDQKTPVPFPEGFLWGASTAAHQIEGNNTDSDWWVKEHAAGTHIAEPSLDACDSYHRWPEDMDLLASLGFTDYRFSVEWARIEPVEGHFSRAQLAHYRRMVEGAIERGLRPMVTLHHFTVPQWFEARGGWTAEGAVELFARYVAACAPVISEGVSHVCTINEPNMIAVMAGQAKRGDNSFPPAGLPTPDDETTAAVIAAHHAAVKEVRALDAGIQVGWTIANQVYQALPGAEDVTAAYRHPREDVFIEAARGDDWIGVQSYTRTRIGPEGPIPAADDVERTLTTWEYYPTAVGEALRHTAAVVGDVPLIVTENGIATADDSRRVDYYAGALDEVASALADGLDIRGYLAWSALDNYEWGTYKATFGLIAIDWETFERTPRDSAKWLGSLGRTRELPRTAA |  | 160 ± 100 | 4.6 | 29000 | 1000 ± 100 | 28 | 28000 | 5800 ± 300 | 13 | 2300 |
